# B1: Catenin alpha-1 (Mus musculus), P26231 (parent)
# chain: MTAVHAGNINFKWDPKSLEIRTLAVERLLEPLVTQVTTLVNTNSKGPSNKKRGRSKKAHVLAASVEQATENFLEKGDKIAKESQFLKEELVVAVEDVRKQGDLMKSAAGEFADDPCSSVKRGNMVRAARALLSAVTRLLILADMADVYKLLVQLKVVEDGILKLRNAGNEQDLGIQYKALKPEVDKLNIMAAKRQQELKDVGNRDQMAAARGILQKNVPILYTASQACLQHPDVAAYKANRDLIYKQLQQAVTGISNAAQATASDDAAQHQGGSGGELAYALNNFDKQIIVDPLSFSEERFRPSLEERLESIISGAALMADSSCTRDDRRERIVAECNAVRQALQDLLSEYMGNAGRKERSDALNSAIDKMTKKTRDLRRQLRKAVMDHVSDSFLETNVPLLVLIEAAKNGNEKEVKEYAQVFREHANKLIEVANLACSISNNEEGVKLVRMSASQLEALCPQVINAALALAAKPQSKLAQENMDLFKEQWEKQVRVLTDAVDDITSIDDFLAVSENHILEDVNKCVIALQEKDVDGLDRTAGAIRGRAARVIHVVTSEMDNYEPGVYTEKVLEATKLLSNTVMPRFTEQVEAAVEALSSDPAQPMDENEFIDASRLVYDGIRDIRKAVLMIRTPEELDDSDFETEDFDVRSRTSVQTEDDQLIAGQSARAIMAQLPQEQKAKIAEQVASFQEEKSKLDAEVSKWDDSGNDIIVLAKQMCMIMMEMTDFTRGKGPLKNTSDVISAAKKIAEAGSRMDKLGRTIADHCPDSACKQDLLAYLQRIALYCHQLNICSKVKAEVQNLGGELVVSGVDSAMSLIQAAKNLMNAVVQTVKASYVASTKYQKSQGMASLNLPAVSWKMKAPEKKPLVKREKQDETQTKIKRASQKKHVNPVQALSEFKAMDSI
# Variants of: B1
# Conditions: with ctnb1_human CTNNB1, P35222
# Sequence of ctnb1_human CTNNB1, P35222 (P35222 whole entry): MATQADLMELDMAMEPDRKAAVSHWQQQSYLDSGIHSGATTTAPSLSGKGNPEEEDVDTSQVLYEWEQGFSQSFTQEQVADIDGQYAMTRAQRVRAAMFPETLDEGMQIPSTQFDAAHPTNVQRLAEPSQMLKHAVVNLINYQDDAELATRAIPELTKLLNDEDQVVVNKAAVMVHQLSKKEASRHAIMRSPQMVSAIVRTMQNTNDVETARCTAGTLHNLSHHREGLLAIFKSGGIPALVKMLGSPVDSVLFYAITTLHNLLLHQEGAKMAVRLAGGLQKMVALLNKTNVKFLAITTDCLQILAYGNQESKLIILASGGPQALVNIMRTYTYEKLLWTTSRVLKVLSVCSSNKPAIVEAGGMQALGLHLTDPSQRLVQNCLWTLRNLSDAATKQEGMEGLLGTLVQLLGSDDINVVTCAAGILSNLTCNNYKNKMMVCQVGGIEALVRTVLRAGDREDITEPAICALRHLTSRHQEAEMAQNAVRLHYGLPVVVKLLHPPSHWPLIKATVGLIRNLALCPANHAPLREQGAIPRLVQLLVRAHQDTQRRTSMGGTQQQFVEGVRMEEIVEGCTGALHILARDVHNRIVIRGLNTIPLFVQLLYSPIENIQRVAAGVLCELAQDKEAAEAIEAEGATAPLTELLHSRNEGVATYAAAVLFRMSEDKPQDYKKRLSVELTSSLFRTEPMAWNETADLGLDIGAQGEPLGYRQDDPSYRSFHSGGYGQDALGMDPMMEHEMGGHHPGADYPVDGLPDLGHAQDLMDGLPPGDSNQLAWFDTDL
row,Variant,effect of a mutation on the interaction
1,V125A,decreasing interaction
2,R137A,decreasing interaction
3,L131A,decreasing interaction
4,L132A,decreasing interaction
5,V135A,decreasing interaction
6,R129A,increasing interaction
7,T136A,increasing interaction
8,L138A,decreasing interaction
9,R126A,increasing interaction
10,L139A,decreasing interaction
11,L141A,decreasing interaction
12,A142S,decreasing interaction
13,S133A,increasing interaction
